Stoichiometry N data for 1 substance are collected here from paper PMC9484798.

For this assay, the target named is U6, a member of the malonate semialdehyde decarboxylase (MSAD)-like subgroup of the tautomerase superfamily. Nature of the assay: native MS.

For “U6, a member of the malonate semialdehyde decarboxylase (MSAD)-like subgroup of the tautomerase superfamily (enzyme)”, the stoichiometry N (in general, the number of molecules, sites or subunits per partner or assembly) is 3.
